What was measured:
[1] = biological target: recombinant human ErbB2 extracellular domain (ErbB2-ECD) (human) (UniProt P04626); test: competitive ELISA vs biotin-Trastuzumab on ErbB2-ECD; control
[2] = biological target: T1, recombinant mouse ErbB2-ECD (mouse, UniProt P70424 23-653); test: indirect ELISA, coated ErbB2-ECD
T1 construct: extracellular domain
Procedure: (§1) Using indirect ELISA described in Example 1, the binding activity of antibodies of this invention to recombinant ErbB2-ECD derived from different species such as mouse, rat, Macaca mulatta, Macaca fascicularis and human, was examined. Briefly. Coat 96-well ELISA plates with 1 ug/ml recombinant ErbB2-ECD of different species with 100 ul/well and incubate at 4° C. for overnight. Remove the coating solution by discarding and tapping gently on a filter paper. Add 200 ul/well blocking buffer, incubate at 37° C. for 1-2 hours. Add purified antibody of this invention and incubate at 37° C. for one hour. Wash the plate 3 times with PBST, add goat anti-mouse IgG-HRP 100 ul/well, incubate at 37° C. for one hour. Wash the plate 3 times with PBST, add 100 ul/well TMB after 15 min, add 50 ul/well 1N HCl. Read the plate with Microplate Reader at 450 nm wavelength.
(§2) Following the same method described in Example 5, the binding activity of the chimeric antibodies of this invention was examined for binding recombinant ErbB2-ECD derived from different species such as mouse, rat Macaca mulatta, Macaca fasciculari and human.

[3] = biological target: T2, recombinant Macaca mulatta ErbB2-ECD (Macaca mulatta, UniProt I0FM22 23-652); test: indirect ELISA, coated ErbB2-ECD
T2 construct: extracellular domain
Procedure: as §1, §2

[4] = biological target: T3, recombinant rat ErbB2-ECD (rat, UniProt P06494 23-654); test: indirect ELISA, coated ErbB2-ECD
T3 construct: extracellular domain
T3 sequence (P06494 23-654): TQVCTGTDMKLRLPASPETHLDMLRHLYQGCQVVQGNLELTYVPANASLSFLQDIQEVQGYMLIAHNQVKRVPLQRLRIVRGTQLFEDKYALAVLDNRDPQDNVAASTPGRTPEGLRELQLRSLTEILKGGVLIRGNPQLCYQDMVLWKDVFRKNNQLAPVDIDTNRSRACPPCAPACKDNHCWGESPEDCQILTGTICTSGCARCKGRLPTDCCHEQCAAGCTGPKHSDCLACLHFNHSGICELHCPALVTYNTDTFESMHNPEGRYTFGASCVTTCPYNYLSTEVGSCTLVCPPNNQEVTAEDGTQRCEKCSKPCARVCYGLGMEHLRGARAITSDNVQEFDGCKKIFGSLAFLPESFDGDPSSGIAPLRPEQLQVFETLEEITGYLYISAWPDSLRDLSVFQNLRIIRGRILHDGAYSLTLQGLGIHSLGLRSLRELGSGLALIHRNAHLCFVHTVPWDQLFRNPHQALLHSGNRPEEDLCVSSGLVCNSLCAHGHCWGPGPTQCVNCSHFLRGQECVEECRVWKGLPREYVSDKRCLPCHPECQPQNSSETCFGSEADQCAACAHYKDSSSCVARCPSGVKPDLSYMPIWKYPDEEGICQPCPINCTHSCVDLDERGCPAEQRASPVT
Procedure: as §1, §2

[5] = biological target: T4, human ErbB2 on ErbB2-positive cells (human, UniProt P04626 23-1255); test: cell-based or functional assay
[6] = biological target: T5, recombinant human ErbB2 extracellular domain (ErbB2-ECD) (human, UniProt P04626 23-652); test: capture ELISA, recombinant ErbB2-ECD
T5 construct: extracellular domain; Coated on plates or used biotin-labeled in solution (capture ELISA); also called Human ErbB2-ECD; rhErbB2
Procedure: (§3) The corresponding purified IgG of five antibodies of this invention were also evaluated for their binding activity to recombinant human ErbB2 by capture ELISA. The procedure is briefly described as following: The 96-well plates were coated with 0.5 μg/ml anti-ErbB2 antibody overnight, blocked by 1% BSA in PBST at 37° C. for one hour. Add serial diluted sample of biotin-human ErbB2-ECD started with 2 μg/ml with 1:5 serial dilution. Wash the plate 3 times with PBST and add 100 ul of HRP-streptavidin (1:5000) to each well. Incubate for another 40 min at 37° C. Wash the plate 3 times with PBST and add 100 ul/well of TMB to develop at RT for 15 min followed by quenching with 50 ul 1N HCl. Read the plates at 450 nm for OD's value. Calculate the binding EC50 by using Prism software and the results are in Table 8 below
The variable domains of the heavy and light chain of the anti-ErbB2 monoclonal antibodies (Table 12, above) were cloned in-frame to human IgG1 heavy-chain and kappa light-chain constant regions, respectively.

[7] = biological target: T4, human ErbB2 on ErbB2-positive cells; test: cell-based or functional assay; remark: listed apart in the source
[8] = biological target: T4, human ErbB2 on ErbB2-positive cells; test: cell-based or functional assay; remark: listed apart in the source
[9] = biological target: T1, recombinant mouse ErbB2-ECD; test: indirect ELISA, coated ErbB2-ECD 1 ug/ml
Procedure: as §1

[10] = biological target: T2, recombinant Macaca mulatta ErbB2-ECD; test: indirect ELISA, coated ErbB2-ECD 1 ug/ml
Procedure: as §1

[11] = biological target: T3, recombinant rat ErbB2-ECD; test: indirect ELISA, coated ErbB2-ECD 1 ug/ml
Procedure: as §1

[12] = biological target: T5, recombinant human ErbB2 extracellular …; test: capture ELISA, coated antibody, biotin-human ErbB2-ECD titrated
Procedure: as §3

[13] = biological target: T5, recombinant human ErbB2 extracellular …; test: capture ELISA, recombinant ErbB2-ECD; remark: listed apart in the source

T1 sequence (P70424 23-653): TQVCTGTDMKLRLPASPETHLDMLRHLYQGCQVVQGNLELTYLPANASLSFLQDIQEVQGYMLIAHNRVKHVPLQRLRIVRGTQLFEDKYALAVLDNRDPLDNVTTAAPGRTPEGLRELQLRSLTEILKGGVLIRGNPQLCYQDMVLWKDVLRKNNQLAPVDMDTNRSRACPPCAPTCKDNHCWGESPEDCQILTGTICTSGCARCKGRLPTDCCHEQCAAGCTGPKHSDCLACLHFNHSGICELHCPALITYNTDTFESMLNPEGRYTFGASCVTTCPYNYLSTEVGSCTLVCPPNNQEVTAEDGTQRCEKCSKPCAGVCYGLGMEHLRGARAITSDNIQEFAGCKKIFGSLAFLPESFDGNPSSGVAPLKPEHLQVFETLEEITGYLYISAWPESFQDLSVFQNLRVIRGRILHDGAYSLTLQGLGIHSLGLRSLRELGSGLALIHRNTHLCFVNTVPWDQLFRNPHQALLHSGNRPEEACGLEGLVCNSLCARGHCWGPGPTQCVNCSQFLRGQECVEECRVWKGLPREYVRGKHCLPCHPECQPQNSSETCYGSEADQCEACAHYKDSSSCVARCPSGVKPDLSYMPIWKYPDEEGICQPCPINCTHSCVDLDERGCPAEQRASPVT

## normal human IgG (antibody)
[1]
  OD450: 2.91 OD

## normal mouse IgG (antibody)
[1]
  OD450: 2.8 OD

B1: 4H2 chimera (antibody, V domains shown)
VH: QVQLQQSGAELARPGASVKMSCKASGFTFTSYTIHWVKQRPGQGLDWIGYINPSSGYTTYNQRFKDKATLTADKSSSTAYMQLSSLTSADSAVYYCARASAYSLDYWGQGTTLTVSS
VL: DIQMTQSPSSLSASLGGKVTITCKASQDIDRYIAWYQHKPGKGPRLLIHYTSTLQPGIPSRFSGSGSGRNYSFSISNLEPEDIATYYCLKYDNLLWTFGGGTKLEIK
notes: also called 4H2 chimeric antibody
[2]
  binding result: no binding
[3]
  binding result: binds
[4]
  binding result: no binding
[5]
  BT474 cell proliferation inhibition IC50 (hIgG + 4H2c): 19.3 nM
[6]
  EC50: 0.118 nM

B2: 4G6 chimera (antibody, V domains shown)
VH: QVQLQQSGAELARPGASVKMSCKASGYTFTSYTMHWVKQRPGQGLEWIGYINPSSAYTNYNQKFKDKATLTADKSSSTANMQLNSLTSEDSAVYYCARASAYSLDYWGQGTALTVSS
VL: DIQMTQSPSSLSASLGGKVTITCKASQDINKYIAWYQHKPGKGPRLLIHSTSTLYPGIPSRFSGSGSGRDYSFRITNLEPEDIATYYCLQYDNLLWTFGGGTKVGIR
notes: also called 4G6 chimeric antibody
[2]
  binding result: no binding
[3]
  binding result: binds
[4]
  binding result: no binding
[5]
  BT474 cell proliferation inhibition IC50 (hIgG + 4G6c): 36.3 nM
[6]
  EC50: 0.02 nM

B3: 4G6 mouse anti-ErbB2 monoclonal antibody (antibody, mouse IgG1, V domains shown)
VH: QVQLQQSGAELARPGASVKMSCKASGYTFTSYTMHWVKQRPGQGLEWIGYINPSSAYTNYNQKFKDKATLTADKSSSTANMQLNSLTSEDSAVYYCARASAYSLDYWGQGTALTVSS
VL: DIQMTQSPSSLSASLGGKVTITCKASQDINKYIAWYQHKPGKGPRLLIHSTSTLYPGIPSRFSGSGSGRDYSFRITNLEPEDIATYYCLQYDNLLWTFGGGTKVGIR
notes: also called 4G6C9B8; IgG 4G6
[7]
  Internalization rate in SKBR3 cells, FITC signal, 2-hour: 18.5
[8]
  BT474 cell proliferation inhibition IC50 (hIgG + 4G6): ~1.24 nM
[9]
  binding result: no binding
[10]
  binding result: binds
[11]
  binding result: no binding
[12]
  EC50: 0.021 nM

B4: 5G9 chimera (antibody, V domains shown)
VH: QVQLQQSGAELARPGASVKMSCKTSGYTFSSYTIHWVKQRPGQGLDWIGYINPSSDYTAYNQKFRDKATLTADQSSNTAYMQLSSLASADSAVYYCARASAFSLDFWGQGTTLTVSS
VL: DIQMTQSPSSLSASLGGKVTISCKASHDIDRYIAWYQHKPGKGPRLLIHYTSTLQPGIPSRFSGSGSGRDYSFSISNLEPEDVATYYCLNYDNLLWTFGGGTKLEIT
notes: also called 5G9 chimeric; 5G9 chimeric antibody
[2]
  binding result: no binding
[3]
  binding result: binds
[4]
  binding result: no binding
[5]
  BT474 cell proliferation inhibition IC50 (hIgG + 5G9c): 43.4 nM
[6]
  EC50: 0.049 nM
[13]
  EC50: 0.044 nM

B5: 5F12 mouse anti-ErbB2 monoclonal antibody (antibody, mouse IgG1, V domains shown)
VH: QVQLQQSGAELARPGASVKMSCKASGYTFTSYTMHWIKQRPGQGLEWIGYINPSSSYTNYNQNFKDKATLTADKSSSTANMQLNSLTSEDSAVYYCARASSYSLDYWGQGTALTVSS
VL: DIQMTQSPSSLSTSLGGKVTITCKASQDINKYIAWYQHKPGKGPRLLIHSTSTLYPGIPSRFSGSGSGKDYSFRITNLEPEDIATYYCLQYDNLLWTFGGGTKLGIR
notes: also called 5F12E5A8; IgG 5F12
[7]
  Internalization rate in SKBR3 cells, FITC signal, 2-hour: 22.6
[8]
  BT474 cell proliferation inhibition IC50 (hIgG + 5F12): 0.7 nM
[9]
  binding result: no binding
[10]
  binding result: binds
[11]
  binding result: no binding
[12]
  EC50: 0.156 nM
